According to patent US20210261667A1:

What was measured:
[1] = target: PD-L1 expressed on the cell surface (HEK293F transiently transfected; A375/PD-L1 stably transfected cells) (UniProt Q9NZQ7); test: flow cytometry blocking assay on HEK293F cells transiently transfected with PD-L1; blocked ligand hPD-1 biotin, SA-PE detection
[2] = target: PD-L1 expressed on the cell surface (HEK293F transiently transfected; A375/PD-L1 stably transfected cells) (UniProt Q9NZQ7); test: flow cytometry blocking assay on A375/PD-L1 cells; blocked ligand hPD-1(ECD)-Fc-Biotin, SA-PE detection; no concentration printed for this panel, which stands above the 0.5 ug/ml column
[3] = target: PD-L1 expressed on the cell surface (HEK293F transiently transfected; A375/PD-L1 stably transfected cells) (UniProt Q9NZQ7); test: flow cytometry blocking assay on A375/PD-L1 cells; blocked ligand hPD-1(ECD)-Fc-Biotin, SA-PE detection, MFI [table, row 1]
[4] = target: PD-L1 expressed on the cell surface (HEK293F transiently transfected; A375/PD-L1 stably transfected cells) (UniProt Q9NZQ7); test: flow cytometry blocking assay on A375/PD-L1 cells; blocked ligand hPD-1(ECD)-Fc-Biotin, SA-PE detection [column 0.005 ug/ml]
[5] = target: PD-L1 expressed on the cell surface (HEK293F transiently transfected; A375/PD-L1 stably transfected cells) (UniProt Q9NZQ7); test: flow cytometry blocking assay on A375/PD-L1 cells; blocked ligand hPD-1(ECD)-Fc-Biotin, SA-PE detection [column 0.05 ug/ml]
[6] = target: PD-L1 expressed on the cell surface (HEK293F transiently transfected; A375/PD-L1 stably transfected cells) (UniProt Q9NZQ7); test: flow cytometry blocking assay on A375/PD-L1 cells; blocked ligand hPD-1(ECD)-Fc-Biotin, SA-PE detection [column 0.5 ug/ml]

PD-L1 expressed on the cell surface (HEK293F transiently transfected; A375/PD-L1 stably transfected cells), sequence (Q9NZQ7 19-290 limits assumed): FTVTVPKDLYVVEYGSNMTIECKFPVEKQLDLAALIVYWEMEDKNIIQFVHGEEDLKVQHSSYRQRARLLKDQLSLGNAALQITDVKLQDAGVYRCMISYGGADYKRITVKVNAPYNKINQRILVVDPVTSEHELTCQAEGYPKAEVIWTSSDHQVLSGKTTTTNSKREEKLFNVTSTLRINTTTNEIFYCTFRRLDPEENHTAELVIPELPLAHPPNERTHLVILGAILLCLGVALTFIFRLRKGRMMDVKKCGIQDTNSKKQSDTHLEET

| Q2 % (cells still positive for PD-1-biotin with the antibody present) [1] [%] | Q2 % (cells still positive for hPD-1(ECD)-Fc-Biotin with the antibody present) [2] [%] | IC50 [3] [µg/mL] | Q2 % (cells still positive for hPD-1(ECD)-Fc-Biotin) at 0.005 ug/ml antibody [4] [%] | Q2 % (cells still positive for hPD-1(ECD)-Fc-Biotin) at 0.05 ug/ml antibody [5] [%] | Q2 % (cells still positive for hPD-1(ECD)-Fc-Biotin) at 0.5 ug/ml antibody [6] [%] | Substance |
| --- | --- | --- | --- | --- | --- | --- |
| 86.2 | 85.9 | – | – | – | – | negative control antibody |
| – | – | 0.456 | 86 | 85.3 | 11.8 | Tecentriq (antibody) |
